{"source": "paper PMC8693863", "biological_target": "Myomaker (MYMK) (mouse (endogenous in primary myoblasts)) (UniProt Q9D1N4)", "sequence (Q9D1N4 whole entry)": "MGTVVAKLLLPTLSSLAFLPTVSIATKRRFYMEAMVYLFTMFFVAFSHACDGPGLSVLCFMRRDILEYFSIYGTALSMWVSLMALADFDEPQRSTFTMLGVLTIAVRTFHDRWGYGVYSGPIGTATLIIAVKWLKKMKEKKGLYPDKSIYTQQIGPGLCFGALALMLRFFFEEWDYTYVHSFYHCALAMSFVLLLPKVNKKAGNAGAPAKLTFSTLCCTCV", "test": "proximity ligation; Duolink PLA on primary mouse myoblasts fixed with 4% PFA, 24 h after DMSO (Ctrl) or ERKi; antibody pairs anti-TMEM8C + anti-CaMKII, or anti-CaMKII + anti-Rac1; mean fluorescent intensity normalized to nuclei number per field", "data": [{"substance": "CaMKII (from UniProt Q6PHZ2 1-499) (natural protein)", "values": [{"measurement": "fold increase of PLA signal mean fluorescent intensity, ERKi against DMSO control", "result": 2.9, "unit": "fold"}]}]}
